Test results taken from patent US6613211B1, “Capillary electrokinesis based cellular assays” (Aclara BioSciences, Inc., priority 1999, dated 2003).
Values joined by “and” are separate entries in the source; they are usually repeats but may differ in a detail not shown here. Equal entries are not always repeated. Where no end group is shown, it is not given here. The star is where a group is joined. For = O=C*

Columns and labels:
[1] = biological target: T1, fMLP receptor (Homo sapiens, UniProt P21462); test: Capillary cytometric competition of labeled fMLPK binding to cells with a high level of fMLP receptor (syringe pump)
T1 sequence (P21462 1-350): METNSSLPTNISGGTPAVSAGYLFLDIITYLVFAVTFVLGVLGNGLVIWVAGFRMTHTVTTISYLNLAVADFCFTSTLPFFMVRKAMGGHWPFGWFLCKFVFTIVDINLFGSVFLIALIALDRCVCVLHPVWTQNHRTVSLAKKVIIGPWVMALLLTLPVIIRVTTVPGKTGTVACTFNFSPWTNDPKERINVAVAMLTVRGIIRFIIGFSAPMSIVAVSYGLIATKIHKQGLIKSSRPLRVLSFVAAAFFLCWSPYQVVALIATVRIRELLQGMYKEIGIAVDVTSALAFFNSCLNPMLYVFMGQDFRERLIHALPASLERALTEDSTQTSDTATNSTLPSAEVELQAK
Procedure: In the next study, pumping means was employed to move cells through a capillary. […] The buffer solution was 140 mM NaCl, 1 mM KH2PO4, 5 mM Na2HPO4, 1.5 mM CaCl2, 0.3 mM MgSO4, 1 mM MgCl2, 0.2% BSA. The cell concentration in the reservoir was 10^6/ml and the receptor concentration was 413 pM. […] […] The device was comprised of a reservoir having a volume of 500 μl into which was introduced a capillary having an I.D. of 100 μm. In place of an electroosmotic pump, a syringe pump operating at 500 μl/min applied to the other end of the capillary was employed. The reading was taken at about 100 mm from the capillary inlet.

[2] = biological target: T1, fMLP receptor; test: Cy-5-fMLPK fluorescence with cells read with Hitachi fluorimeter; assay type: binding; conditions: solution 3: 125 μl Cy-5-fMLPK, 125 μl cells, 1 μl 1 mM fMLPK
Procedure: (§1) In the next study, pumping means was employed to move cells through a capillary. The cells were cultured cells having a high level of the fMLP receptor on the surface. The buffer solution was 140 mM NaCl, 1 mM KH2PO4, 5 mM Na2HPO4, 1.5 mM CaCl2, 0.3 mM MgSO4, 1 mM MgCl2, 0.2% BSA. The cell concentration in the reservoir was 10^6/ml and the receptor concentration was 413 pM. […] The labeled ligand was 4 nM, while the ligand concentration was varied from 2.5 nM to 250 nM. The device was comprised of a reservoir having a volume of 500 μl into which was introduced a capillary having an I.D. of 100 μm. In place of an electroosmotic pump, a syringe pump operating at 500 μl/min applied to the other end of the capillary was employed. The reading was taken at about 100 mm from the capillary inlet. The results are shown in FIGS. 4 and 5, where TR stands for tracer, RC refers to receptor and TRC refers to both Tracer and Receptor.
In the next study four solutions were prepared using the Cy-5 conjugate of fMLPK. The compositions are as follows: (1) 125 μl buffer and 125 μl Cy-5-fMLPK; (2) 125 μl Cy5-fMLPK and 125 μl cells; (3) 125 μl Cy-5-fMLPK, 125 μl cells and 1 μl 1 mM fMLPK; and 125 μl buffer and 125 μl cells. An Hitachi fluorimeter was used to read scence which covers 220 μl. For buffer, the readings were 34,33.

[3] = biological target: T1, fMLP receptor; test: Calibration study, Cy5-fMLPK fluorescence with cells read with P/ACE; assay type: binding; conditions: solution 3: 25 μl cells, 25 μl 12 nM Cy5-fMLPK, 0.25 μl 1 mM fMLPK
Procedure: as §1
In and initial study for calibration, four solutions were prepared: (1) 25 μl buffer and 25 μl Cy5-fMLPK; (2) 25 μl cells and 25 μl 12 nM Cy5-fMLPK; (3) 25 μl cells and 25 μl 12 nM Cy5-fMLPK and 0.25 μl 1 mM fMLPK; and (4) 25 μl cells and 25 μl buffer. The flurescence was read with the aid of a P/ACE, which covers a volume of 50 μl.

total peak height ([1]; fMLPK 2.5 nM): 19
total peak height ([1]; fMLPK 250 nM): < 1
total peak height ([1]; fMLPK 2.5 μM): 0
fluorescence, column A [2]: 844
fluorescence, column C [2]: 826
fluorescence, column D [2]: 812
fluorescence, column A [3]: 1,97 and 1.99
fluorescence, column B [3]: 1.98 and 1.97
fluorescence, column C [3]: 2.06, 2.06
fluorescence, column D [3]: 1.95 and 1.99
Substance: N-formyl-Met-Leu-Phe-Lys (For-MLFK) [fMLPK]
